Results taken from patent publication US20090281024A1 (RAPTOR PHARMACEUTICALS, published 2009).

T1: LRP2 CR89 V1047D (human, UniProt P98164 1022-1105)
T1 construct: also called YDWR; not shown: N-terminal hexahistidine and S-peptide tag stretch of pET30(+)a
T1 chain: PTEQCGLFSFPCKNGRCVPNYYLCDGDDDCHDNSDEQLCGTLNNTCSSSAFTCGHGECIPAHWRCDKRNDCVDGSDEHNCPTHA

T2: LRP2 CR89 Y1042W R1088D (human, UniProt P98164 1022-1105)
T2 construct: also called WVWD; not shown: N-terminal hexahistidine and S-peptide tag stretch of pET30(+)a
T2 chain: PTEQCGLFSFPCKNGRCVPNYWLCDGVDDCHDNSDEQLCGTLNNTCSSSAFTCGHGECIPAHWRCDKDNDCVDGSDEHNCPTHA

T3: LRP2 CR89 V1047D R1088D (human, UniProt P98164 1022-1105)
T3 construct: also called YDWD; not shown: N-terminal hexahistidine and S-peptide tag stretch of pET30(+)a
T3 chain: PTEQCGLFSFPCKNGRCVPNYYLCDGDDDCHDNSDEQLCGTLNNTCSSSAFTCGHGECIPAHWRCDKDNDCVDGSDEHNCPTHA


Key:
GFRα-1 [1] = target: T4, GFRα-1; test: solid phase assay, RAP-GDNF concentration varied, OD 450 nm
T4 construct: Bought reagent; construct not described; also called soluble GFRα-1

GFRα-1 [2] = target: T4, GFRα-1; test: solid-phase assay, coated RAP-GDNF, serial dilutions of GFRα-1 (FIG. 12)
Description: Solid-phase binding assays—Microtiter plates were coated with GDNF or RAP-GDNF in 50 mM sodium carbonate, pH 9.6. The plates were then blocked for 1 hour at room temperature with blocking buffer (Promega) and incubated with serial dilutions of GFRα-1 (0-10 nM) in the presence or the absence of 1 μM RET (2 hours, ambient temperature). Complexes were identified by probing with an anti-GDNF monoclonal antibody (B8, Santa Cruz Biotechriology) and then with anti-mouse […] (Bio-Rad). After adding TMB solution (Bio-Rad), the color development was stopped with HCl and the OD 450 nm was measured using a plate reader. Between steps, the plates were washed three times with DPBS containing 0.1% Tween 20. This method provides a method for quantitating the affinity of RAP-GDNF for GFRα.

LRP1 CR3-5 [3] = target: T5, LRP1 CR3-5 (human); test: solid-phase assay, coated CR protein (FIG. 4)
T5 construct: range 852-973; also called L1 CR3-5; LRP1 CR3-S [sic]
T5 sequence (Q07954 852-973): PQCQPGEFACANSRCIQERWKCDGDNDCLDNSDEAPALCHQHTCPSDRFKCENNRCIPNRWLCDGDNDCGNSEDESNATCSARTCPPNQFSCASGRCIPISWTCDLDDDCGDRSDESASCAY
Description: Solid phase binding assays—Purified, refolded CR protein (1 μg) was bound to Nunc Maxisorp™ 96-well plates in TBS pH 8 supplemented with 5 mM CaCl₂ (TBSC) overnight at 4° C. Wells were washed with TBSC and then blocked with TBSC containing 2% bovine serum albumin (BSA). RAP ligands were then incubated with the immobilized receptor at a range of concentrations for 2 hours in the above blocking buffer supplemented with 0.05% Tween-20 at room temperature. Control wells contained no added ligand. As an additional control, to determine whether the absence of calcium affected binding, 10 mM EGTA was included in the incubation medium for some samples. Wells were washed with TBSTC and bound ligands detected with polyclonal anti-RAP (BP41/42, 1:1,000, BioMarin). Excess primary antibody was removed and wells washed before incubation with the secondary antibody, HRP-conjugated goat anti rabbit IgG (Bio-Rad). After washing, TMB substrate solutions (Bio-Rad) were added to detect HRP. Color development was stopped with 1N HCl. Absorption at 450 nm was measured with a microplate spectrophotometer (Molecular Devices). […]
The binding of wild-type RAP d3 to each CR pair or set of overlapping pairs was then measured by solid-phase assay (FIG. 4). […] Binding of RAP d3 to MAT CR12 and CR34, measured in a separate set of experiments, was also undetectable. […]

LRP1 CR3-5 [4] = target: T5, LRP1 CR3-5; test: solid-phase assay, coated CR protein
Description: (§1) Wells were washed with TBSTC and bound ligands detected with polyclonal anti-RAP (BP41/42, 1:1,000, BioMarin). Excess primary antibody was removed and wells washed before incubation with the secondary antibody, HRP-conjugated goat anti rabbit IgG (Bio-Rad). After washing, TMB substrate solutions (Bio-Rad) were added to detect HRP. Color development was stopped with 1N HCl. Absorption at 450 nm was measured with a microplate spectrophotometer (Molecular Devices). Data were plotted and Kd values derived by non-linear regression with the assumption of single-site binding (GraphPad Prism).
Next, the binding of RAP d3 and MegaRAP1 d3 proteins to LRP1 CR3-5 and LRP2 CR89 was assessed. […] In all cases, 10 mM EGTA prevented binding of both RAP d3 and MegaRAP1 d3 to CR proteins. Since calcium was the only divalent metal ion present in the binding buffer, this observation is consistent with both RAP d3 and MegaRAP1 d3 binding to calcium-loaded CR pairs. […] Therefore, wild-type RAP d3 and MegaRAP1 d3 have inverted binding preferences for these two receptor fragments.

LRP2 CR89 V1047D = target: T1, LRP2 CR89 V1047D; test: solid-phase assay, coated CR protein
Description: as §1
(§2) One premise of this work was that amino acids at A, C, A′ and C′ within the calcium-binding loops of a CR pair were key determinants of binding affinity for RAP and would be similarly important for binding of RAP variants. To test this idea, mutant LRP2 CR89 were prepared in which the native, non-canonical residues at these positions were sequentially substituted with the non-native, canonical residues. As defined above, the A, C, A′, C′ string for LRP2 CR89 is YVWR. Mutants included LRP2 CR89Y1042W (WVWR), LRP2 CR89V1047D (YDWR), LRP2 CR89R1088D (YVWD), LRP2 CR89V1047D R1088D (YDWD), LRP2 CR89 Y1042W V1047D R1088D (WDWD), LRP2 CR89Y1042W V1047D (WDWR), LRP2 CR89Y1042W R1088D (WVWD). Binding to both RAP d3 and MegaRAP1 d3 were measured for each LRP2 CR89 mutant by solid-phase assay. […] The A′ position in LRP2 CR89 is a tryptophan, the canonical residue for wild-type RAP d3 binding, and was not mutated in our studies. […] We did see a small increase in binding of RAP d3 to the WVWD and WDWD combinations at A, C, A′ and C′.

LRP2 CR89 Y1042W R1088D = target: T2, LRP2 CR89 Y1042W R1088D; test: solid-phase assay, coated CR protein
Description: as §1, §2

LRP2 CR89 V1047D R1088D = target: T3, LRP2 CR89 V1047D R1088D; test: solid-phase assay, coated CR protein
Description: as §1, §2

LRP1 CR3-5 [5] = target: T5, LRP1 CR3-5; test: solid-phase assay, coated CR protein (same value as Table 1)

EC50 (read off the curve) (GFRα-1 [1]) [ng/mL] | Kd (GFRα-1 [2]) [ng/mL] | Kd (LRP1 CR3-5 [3]) [nM] | % max binding (LRP1 CR3-5 [4]) [%] | Kd (LRP1 CR3-5 [4]) [nM] | % max bind (LRP2 CR89 V1047D) [%] | % max bind (LRP2 CR89 Y1042W R1088D) [%] | % max bind (LRP2 CR89 V1047D R1088D) [%] | Kd (LRP1 CR3-5 [5]) [nM] | Binder
~2 | ~5 | – | – | – | – | – | – | – | RAP-GDNF fusion protein (ligand, UniProt P30533 35-353, looked up, Secreted from CHO cells as a disulfide-linked homodimer of about 120 kD) YSREKNQPKPSPKRESGEEFRMEKLNQLWEKAQRLHLPPVRLAELHADLKIQERDELAWKKLKLDGLDEDGEKEARLIRNLNVILAKYGLDGKKDARQVTSNSLSGTQEDGLDDPRLEKLWHKAKTSGKFSGEELDKLWREFLHHKEKVHEYNVLLETLSRTEEIHENVISPSDLSDIKGSVLHSRHTELKEKLRSINQGLDRLRRVSHQGYSTEAEFEEPRVIDLWDLAQSANLTDKELEAFREELKHFEAKIEKHNHYQKQLEIAHEKLRHAESVGDGERVSRSREKHALLEGRTKELGYTVKKHLQDLSGRISRARSPDKQMAVLPRRERNRQAAAANPENSRGKGRRGQRGKNRGCVLTAIHLNVTDLGLGYETKEELIFRYCSGSCDAAETTYDKILKNLSRNRRLVSDKVGQACCRPIAFDDDLSFLDDNLVYHILRKHSAKRCGCI
– | – | 11 | 76 | 16 | 6 | 16 | 6 | 16 | RAP d3 (wild-type third domain of the receptor-associated protein) (ligand, human, UniProt P30533 235-353, looked up, range 201-319 (mature RAP numbering); Expressed in E. coli from pET30(+)a; also called wild-type RAP d3; not shown: N-terminal hexahistidine and S-peptide tags of pET30(+)a) LDRLRRVSHQGYSTEAEFEEPRVIDLWDLAQSANLTDKELEAFREELKHFEAKIEKHNHYQKQLEIAHEKLRHAESVGDGERVSRSREKHALLEGRTKELGYTVKKHLQDLSGRISRAR
